This note sets out measurements from patent US20060029995A1, “Novel class of metacaspases” (Vlaams Interuniversitair Instituut Voor Biotechnologie VZW, priority 2003, published 2006).

The target in data set [1] is T1, t-butyloxycarbonyl-Gly-Lys-Arg-7-amido-4-methylcoumarin.
T1 chain: GKR

Another data set addresses T2, Z-DEVD-cmk.
T2 chain: DEVD

For the next data set, the target named is T3, Z-VAD-fmk.
T3 chain: VAD

The target of data set [2] is T4, t-butyloxycarbonyl-Gly-Arg-Arg-7-amido-4-methylcoumarin.
T4 chain: GRR

Data set [3] has as its target T5, Soybean trypsin inhibitor, P01070.
T5 chain: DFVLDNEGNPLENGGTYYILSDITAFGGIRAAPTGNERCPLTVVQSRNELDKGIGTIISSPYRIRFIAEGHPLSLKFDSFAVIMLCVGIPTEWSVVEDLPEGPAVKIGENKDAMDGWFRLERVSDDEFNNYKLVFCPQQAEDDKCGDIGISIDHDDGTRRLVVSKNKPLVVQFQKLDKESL

Data set [4] concerns the target T6, H-Ala-Phe-Lys-7-amido-4-methylcoumarin.
T6 chain: AFK

The target in the next data set is T7, Z-YVAD-cmk.
T7 chain: YVAD

For data set [5], the target named is T8, Z-FK-2,4,6-trimethylbenzoyloxymethyl ketone.
T8 chain: FK

Data set [6] concerns the target T9, benzyloxycarbonyl-Phe-Arg-AMC.
T9 chain: FR

A short description of data set [7]: Activity of full length metacaspase 3 and prodomain deletion mutants in function of the pH, Z-FR-AMC as substrate. In kind it is biochemical. More on the design: unit not given here. From the text: For generation of the prodomain deletion mutant of Arabidopsis thaliana metacaspase 3 (MC3ΔN), residues 1 to 91 were replaced by a methionine residue by PCR, using 5′-[…]-3′ (SEQ ID NO:43) as the forward primer and 5′-[…]-3′ (SEQ ID NO:17) as the reverse primer. 5′ extensions used for Gateway™ (Invitrogen) cloning were 5′-[…]-3′ (SEQ ID NO:44) for forward primers and 5′-[…]-3′ (SEQ ID NO:45) for reverse primers. For bacterial production, the cDNA's were cloned into the bacterial expression vector pDEST17™ (Invitrogen), resulting in the amino-terminal translational addition of the following HIS6 tag-containing sequence: […] (SEQ ID NO:37).
Activity of purified metacaspase 3 was tested with different fluorescent substrates in assay buffers of pHs ranging from 4.5 to 9.0 (MES 50 mM). The substrates tested were: Ac-DEVD-AMC, Z-VAD-AMC, Boc-GRR-AMC, Boc-GKR-AMC, Z-FR-AMC and H-AFK-AMC. Only Z-FR-AMC was cut by metacaspase 3.
A comparison was made between full length (MC3) and a prodomain deletion mutant of wild-type metacaspase 3 (MC3AN) or the C/A mutant (MC3ANC/A). Activity was significant only after addition of the kosmotrope sodium citrate (Na citr., 1 M), in absence of this agent the proteins were not active.
Table 3: Activit y of full length metacaspase 3, and the prodomain deletion mutant in function of the pH, using Z-FR-AMC as substrate. “No enz” was incubated at pH8, without addition of metacaspase.

The target of data set [8] is T10, benzyloxycarbonyl-Val-Ala-Asp-aminomethylcoumarin.
T10 chain: VAD

For data set [9], the target named is T11, acetyl-Asp-Glu-Val-Asp-aminomethylcoumarin.
T11 chain: DEVD

The nature of data set [10]: Proteolytic activity of Atmc9 against Boc-GKR-AMC at different pH. In kind it is biochemical. How it is done: Assays were performed in 150 μl with 400 ng of purified Atmc9 and 50 μM substrate in an optimized metacaspase 9 assay buffer (50 mM MES pH 5.3, 10% (w/v) sucrose, 0.1% (w/v) 3-[(3-cholamidopropyl)dimethylammonio]-1-propanesulfonate [CHAPS], 10 mM DTT). Time-dependent release of free amido-4-methylcoumarin (AMC) was measured on a Cytofluor 4000 fluorescence microplate reader (PerSeptive Biosystems, Farmingham, Md., USA).
To further characterize Atmc9 biochemically, the purified protein and its cysteine mutant were tested for their ability to cleave the synthetic fluorogenic oligopeptide substrate t-butyloxycarbonyl-GKR-7-amido-4-methylcoumarin (Boc-GKR-AMC) at different pH.

B1: N-terminally HIS6-tagged Atmc9 (bacterially produced) (protein)
chain: MSYYHHHHHHLESTSLYKKAGSTMDQQGMVKKRLAVLVGCNYPNTRNELHGCINDVLAMKETILSRFGFKQDDIEVLTDEPESKVKPTGANIKAALRRMVDKAQAGSGDILFFHYSGHGTRIPSVKSAHPFKQDEAIVPCDFNLITDVDFRELVNQLPKGTSFTMISDSCHSGGLIDKEKEQIGPSSVSSNISPAIETTNKTITSRALPFKAVLDHLSSLTGITTSDIGTHLLELFGRDAGLKFRLPAMDLMDLLETMTAREKHVDSGILMSGCQADETSADVGVGNGKAYGAFSNAIQRVLNENEGAMKNKQLVMMARDVLERLGFHQHPCLYCSDQNADATFLSQP
As usually defined, the kcat/Km is the turnover number divided by the Michaelis constant. As to B1, the kcat/Km in [1] amounted to 1900 M⁻¹ s⁻¹; in [2], 2900 M⁻¹ s⁻¹; in data set [4], 750 M⁻¹ s⁻¹; in data set [6], 2900 M⁻¹ s⁻¹. The Activity (%) of Atmc9 with Boc-GKR-AMC as substrate, reagent at 100 µM stood at 94% in the data set with Z-DEVD-cmk, 87% with Z-VAD-fmk and 100% with Z-YVAD-cmk. In addition, the Activity (%) of Atmc9 with Boc-GKR-AMC as substrate, reagent at 100 µg/ml in data set [3] amounted to 73%. The same molecule displayed an Activity (%) of Atmc9 with Boc-GKR-AMC as substrate, reagent at 1 µM in [5] of 33%.

B2: N-terminally HIS6-tagged Atmc3 (bacterially produced) (protein)
chain: MSYYHHHHHHLESTSLYKKAGSTMASRREVRCRCGRRMWVQPDARTVQCSTCHTVTQLYSLVDIARGANRIIHGFQQLLRQHQPQHHEQQQQQMMAQPPPRLLEPLPSPFGKKRAVLCGVNYKGKSYSLKGCISDAKSMRSLLVQQMGFPIDSILMLTEDEASPQRIPTKRNIRKAMRWLVEGNRARDSLVFHFSGHGSQQNDYNGDEIDGQDEALCPLDHETEGKIIDDEINRILVRPLVHGAKLHAVIDACNSGTVLDLPFICRMERNGSYEWEDHRSVRAYKGTDGGAAFCFSACDDDESSGYTPVFTGKNTGAMTYSFIKAVKTAGPAPTYGHLLNLMCSAIREAQSRLAFNGDYTSSDASAEPLLTSSEEFDVYATKFVL
With B2, the Activity in data set [7] (pH 4.5, with sodium citrate (1 M)) was determined as 13.37; in data set [7] (pH 5, with sodium citrate (1 M)), 8.05; in data set [7] (pH 5.5, with sodium citrate (1 M)), 5.48; in data set [7] (pH 6, with sodium citrate (1 M)), 5.64; in data set [7] (pH 6.5, with sodium citrate (1 M)), 29.58; in [7] (pH 7, with sodium citrate (1 M)), 36.63. The Activity is reported as 41.61 in [7] (pH 7.5, with sodium citrate (1 M)); 26.11 in data set [7] (pH 8, with sodium citrate (1 M)); 17.93 in [7] (pH 8.5, with sodium citrate (1 M)); −2.57 in data set [7] (pH 9, with sodium citrate (1 M)). Moreover, the “cleavage of fluorescent substrate, pH 4.5 to 9.0” value in data set [1] is “No activity was detected using the other substrates”; in [8], “No activity was detected using the other substrates”; in data set [2], “No activity was detected using the other substrates”; in data set [4] it was “No activity was detected using the other substrates”; in data set [6] it was “Only Z-FR-AMC was cut by metacaspase 3”; in [9], “No activity was detected using the other substrates”.

B3: Atmc9: purified recombinant HIS-tagged Arabidopsis thaliana metacaspase 9, type II (protein, listed as Arabidopsis thaliana)
chain: HHHHHLESTSLYKKAGSTMDQQGMVKKRLAVLVGCNYPNTRNELHGCINDVLAMKETILSRFGFKQDDIEVLTDEPESKVKPTGANIKAALRRMVDKAQAGSGDILFFHYSGHGTRIPSVKSAHPFKQDEAIVPCDFNLITDVDFRELVNQLPKGTSFTMISDSCHSGGLIDKEKEQIGPSSVSSNISPAIETTNKTITSRALPFKAVLDHLSSLTGITTSDIGTHLLELFGRDAGLKFRLPAMDLMDLLETMTAREKHVDSGILMSGCQADETSADVGVGNGKAYGAFSNAIQRVLNENEGAMKNKQLVMMARDVLERLGFHQHPCLYCSDQNADATFLSQP
modifications: N-terminal His6 tag with linker; Atmc9
notes: purified recombinant HIS-tagged Arabidopsis thaliana metacaspase 9, type II
Regarding B3, in [10] (pH 7.0-7.5), the “activity at the physiological pH of the cytoplasm” value is reported as “completely abolished”. For the same molecule, the “GKR-ase activity” value in [10] (purified protein, Boc-GKR-AMC at different pH, FIG. 7) is given as “clearly has GKR-ase activity”.
